From patent US20120034160A1 (AbbVie / Abbott, published 2012)
Substitutions are numbered along the chain they refer to.

T1: Recombinant Human IL-17 (human, UniProt Q16552 20-155, limits assumed)
T1 construct: Bought reagent
T1 sequence (looked up): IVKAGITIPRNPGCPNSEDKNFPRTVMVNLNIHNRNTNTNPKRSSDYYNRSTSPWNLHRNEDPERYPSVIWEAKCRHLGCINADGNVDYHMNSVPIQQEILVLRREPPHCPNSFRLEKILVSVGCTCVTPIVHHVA

B1: DVD1636 (bispecific antibody, human IgG1, kappa)
heavy: not shown
light: EIVLTQSPDFQSVTPKEKVTITCRASQDIGSELHWYQQKPDQPPKLLIKYASHSTSGVPSRFSGSGSGTDFTLTINGLEAEDAGTYYCHQTDSLPYTFGPGTKVDIKRTVAAPDTVVTQSPAFLSVTPGEKVTITCITSTDIDVDMNWYQQKPDQPPKLLISQGNTLRPGVPSRFSSSGSGTDFTFTISSLEAEDAATYYCLQSDNLPLTFGQGTKLEIKRTVAAPSVFIFPPSDEQLKSGTASVVCLLNNFYPREAKVQWKVDNALQSGNSQESVTEQDSKDSTYSLSSTLTLSKADYEKHKVYACEVTHQGLSSPVTKSFNRGEC
notes: DVD-Ig: outer AB274, inner AB271; V1/V2 vectors: wild type hIgG1, kappa
B2: DVD1646 (bispecific antibody, human IgG1, kappa)
heavy: not shown
light: B1 light with D28N, P43S, T55I, G84A, T91S, S93T, Y96H, P100Q
notes: DVD-Ig: outer AB275, inner AB271; V1/V2 vectors: wild type hIgG1, kappa
B3: DVD1640 (bispecific antibody, human IgG1, kappa)
heavy: not shown
light: EIVLTQSPDFQSVTPKEKVTITCRASQNIGSELHWYQQKPDQSPKLLIKYASHSISGVPSRFSGSGSGTDFTLTINGLEAEDAATYYCHQSDTLPHTFGQGTKVDIKRTVAAPDIQMTQSPSSLSASVGDRVTITCRASGNIHNYLTWYQQTPGKAPKLLIYNAKTLADGVPSRFSGSGSGTDYTFTISSLQPEDIATYYCQHFWSIPYTFGQGTKLQITRTVAAPSVFIFPPSDEQLKSGTASVVCLLNNFYPREAKVQWKVDNALQSGNSQESVTEQDSKDSTYSLSSTLTLSKADYEKHKVYACEVTHQGLSSPVTKSFNRGEC
notes: V1/V2 vectors: wild type hIgG1, kappa
B4: DVD1642 (bispecific antibody, human IgG1, kappa)
heavy: not shown
light: B3 light
notes: as for B3
B5: DVD1634 (bispecific antibody, human IgG1, kappa)
heavy: not shown
light: EIVLTQSPDFQSVTPKEKVTITCRASQDIGSELHWYQQKPDQPPKLLIKYASHSTSGVPSRFSGSGSGTDFTLTINGLEAEDAGTYYCHQTDSLPYTFGPGTKVDIKRTVAAPDTQVTQSPSSLSASVGDRVTITCITSTDIDVDMNWYQQKPGKPPKLLISQGNTLRPGVPSRFSSSGSGTDFTFTISSLQPEDFATYYCLQSDNLPLTFGQGTKLEIKRTVAAPSVFIFPPSDEQLKSGTASVVCLLNNFYPREAKVQWKVDNALQSGNSQESVTEQDSKDSTYSLSSTLTLSKADYEKHKVYACEVTHQGLSSPVTKSFNRGEC
notes: DVD-Ig: outer AB274, inner AB270; V1/V2 vectors: wild type hIgG1, kappa
B6: DVD1648 (bispecific antibody, human IgG1, kappa)
heavy: not shown
light: B5 light with D28N, P43S, T55I, G84A, T91S, S93T, Y96H, P100Q, D114E, Q116T
notes: DVD-Ig: outer AB275, inner AB272; V1/V2 vectors: wild type hIgG1, kappa
B7: DVD1638 (bispecific antibody, human IgG1, kappa)
heavy: not shown
light: B5 light with D114E, Q116T
notes: DVD-Ig: outer AB274, inner AB272; V1/V2 vectors: wild type hIgG1, kappa
B8: DVD1647 (bispecific antibody, human IgG1, kappa)
heavy: not shown
light: ETTVTQSPSSLSASVGDRVTITCITSTDIDVDMNWYQQKPGKPPKLLISQGNTLRPGVPSRFSSSGSGTDFTFTISSLQPEDFATYYCLQSDNLPLTFGQGTKLEIKRTVAAPEIVLTQSPDFQSVTPKEKVTITCRASQNIGSELHWYQQKPDQSPKLLIKYASHSISGVPSRFSGSGSGTDFTLTINGLEAEDAATYYCHQSDTLPHTFGQGTKVDIKRTVAAPSVFIFPPSDEQLKSGTASVVCLLNNFYPREAKVQWKVDNALQSGNSQESVTEQDSKDSTYSLSSTLTLSKADYEKHKVYACEVTHQGLSSPVTKSFNRGEC
notes: DVD-Ig: outer AB272, inner AB275; V1/V2 vectors: wild type hIgG1, kappa

Key:
Recombinant Human IL-17 [1] = molecular target: T1, Recombinant Human IL-17; test: Biacore SPR; N-terminal VD
In short: (§1)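 Reported constants are kon (M⁻¹s⁻¹), koff (s⁻¹) and KD, calculated as koff/kon from a global 1:1 Langmuir fit. Antigen at 10−200 nM was passed over antibody or DVD-Ig captured on an anti-mouse IgG Fcγ surface in HBS-EP pH 7.4 at 25° C.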

Recombinant Human IL-1β [2] = molecular target: T2, Recombinant Human IL-1β (human, UniProt P01584 117-269); test: cell-based or functional assay
Recombinant Human IL-17 [3] = molecular target: T1, Recombinant Human IL-17; test: cell-based or functional assay
Recombinant Human IL-1β [4] = molecular target: T2, Recombinant Human IL-1β; test: Biacore SPR; C-terminal VD
In short: as §1

Recombinant Human IL-1β [5] = molecular target: T2, Recombinant Human IL-1β; test: Biacore SPR; N-terminal VD
In short: as §1

Recombinant Human IL-17 [6] = molecular target: T1, Recombinant Human IL-17; test: Biacore SPR; C-terminal VD
In short: as §1

Binder | Kd (Recombinant Human IL-17 [1]) | koff (Recombinant Human IL-17 [1]) | kon (Recombinant Human IL-17 [1]) | C-Terminal VD IL-1β Neutralization Assay EC50 (Recombinant Human IL-1β [2]) | N-terminal VD IL-17 Neutralization Assay EC50 (Recombinant Human IL-17 [3]) | Kd (Recombinant Human IL-1β [4]) | koff (Recombinant Human IL-1β [4]) | kon (Recombinant Human IL-1β [4]) | Kd (Recombinant Human IL-1β [5]) | koff (Recombinant Human IL-1β [5]) | kon (Recombinant Human IL-1β [5]) | N-Terminal VD IL-1β Neutralization Assay EC50 (Recombinant Human IL-1β [2]) | C-terminal VD IL-17 Neutralization Assay EC50 (Recombinant Human IL-17 [3]) | Kd (Recombinant Human IL-17 [6]) | koff (Recombinant Human IL-17 [6]) | kon (Recombinant Human IL-17 [6])
B1 | 0.0046 nM | 1.9e-05 s⁻¹ | 4.1e+06 M⁻¹ s⁻¹ | 27.1 nM | 7.5 pM | 0.6 nM | 0.00063 s⁻¹ | 1e+06 M⁻¹ s⁻¹ | – | – | – | – | – | – | – | –
B2 | 0.012 nM | 4.7e-05 s⁻¹ | 3.9e+06 M⁻¹ s⁻¹ | 20.6 nM | 8.2 pM | 0.62 nM | 0.00063 s⁻¹ | 1e+06 M⁻¹ s⁻¹ | – | – | – | – | – | – | – | –
B3 | 0.017 nM | 6.5e-05 s⁻¹ | 3.8e+06 M⁻¹ s⁻¹ | 2.85 nM | 6.1 pM | 0.09 nM | 1.2e-05 s⁻¹ | 130000 M⁻¹ s⁻¹ | – | – | – | – | – | – | – | –
B4 | 0.011 nM | 4.1e-05 s⁻¹ | 3.9e+06 M⁻¹ s⁻¹ | 0.628 nM | 4.3 pM | < 0.001 nM | < 1e-06 s⁻¹ | 960000 M⁻¹ s⁻¹ | – | – | – | – | – | – | – | –
B5 | 0.0052 nM | 1.9e-05 s⁻¹ | 3.7e+06 M⁻¹ s⁻¹ | > 12 nM | 24.1 pM | 0.63 nM | 0.00055 s⁻¹ | 870000 M⁻¹ s⁻¹ | – | – | – | – | – | – | – | –
B6 | 0.02 nM | 6.2e-05 s⁻¹ | 3.1e+06 M⁻¹ s⁻¹ | 16.2 nM | 8.9 pM | 0.56 nM | 0.00075 s⁻¹ | 1.3e+06 M⁻¹ s⁻¹ | – | – | – | – | – | – | – | –
B7 | 0.0068 nM | 2.7e-05 s⁻¹ | 3.9e+06 M⁻¹ s⁻¹ | > 20 nM | 6.9 pM | 0.63 nM | 0.00085 s⁻¹ | 1.3e+06 M⁻¹ s⁻¹ | – | – | – | – | – | – | – | –
B8 | – | – | – | – | – | – | – | – | 0.083 nM | 0.00059 s⁻¹ | 7.1e+06 M⁻¹ s⁻¹ | 0.152 nM | 0.34 nM | 0.53 nM | 9e-05 s⁻¹ | 170000 M⁻¹ s⁻¹
